This is an account of results in the RNAGym collection of RNA variant scans (doi:10.7554/elife.90254).

B1: OR4K15 (parent)
chain: GUUAACGGUCAUAGGCCAUGGAAACUAGGAGCACCAUUUCGCUGCCAGUGAAGAAAUGAACAAAGAAAAUCUGGGCCAGGCAGGCAUCAAAAGAAAUAGUCUUGCGCUCAACCAGAAAGUCUGUAAUCAUUUUAAGGGUA

In this data set the parent is B1. In words: self-cleavage, relative activity (ratio to wild type); higher = more cleavage; in vitro, sequencing; the parent is a self-cleaving ribozyme.
With A68G A118U, the self-cleavage amounted to 0.83. Take A67G A129G: the self-cleavage worked out at 0.85. In the case of A67G A129U it was 1.03; in that of A67G A129C, 1.2.

Regarding A68G C105U, the self-cleavage was 0.14.

As to A67G A91U, the self-cleavage was 0.99. In the case of A66G G104U it was 0.02; in that of A66G G104A, 0.03. In the case of A67G U120A it was 1.38; in that of A67G G75C, 0.03. In the case of A67G A134U it was 1.12. Take A67G U97C: the self-cleavage was 1.74. In the case of A66G A129G it was 0.85; in that of A66G A126U, 1.54.

Consider A69G U97C, for which the self-cleavage was 0.98. In the case of A69G U124C it was 1.11; in that of A67U U100G, 1.34; in that of A67U A114G, 0.66.

With A66U C81U, the self-cleavage amounted to 0.05. Take A66G U139A: the self-cleavage is 1.72. As to A66U U127C, the self-cleavage amounted to 0.58. A66G A67C: the self-cleavage was 1.66. In the case of A66G A67U it was 1.61; in that of A66G A92U, 1.98; in that of A67G U100C, 2.32. Regarding A69G C121A, the self-cleavage was found to be 2.02.

As to A64U A140G, the self-cleavage worked out at 1.39. For the variant A69G, the self-cleavage was determined as 1.16.

Take A69C: the self-cleavage came out at 1.05. In the case of A69U it was 1.81; in that of A64U U72C, 0.34; in that of A67U A69U, 1.69. For A67C U131C, the self-cleavage stood at 1.86.

Turning to A67U A118G, the self-cleavage came out at 1.4. In the case of A66U G106A it was 0.02; in that of A64U U127C, 1.66; in that of A66G U124C, 0.76. On to A66G U124A, for which the self-cleavage was 1.19.

As for A69U A78G, the self-cleavage is 0.32. In the case of A68C A92G it was 1.88. Consider A68G A116G, for which the self-cleavage came to 0.8. Consider A69G A96U, for which the self-cleavage was 1.85. In the case of A66U A125G it was 0.25.

With A67G A92G, the self-cleavage came out at 1.31. Take A67G A92C: the self-cleavage was 1.62. For A67G G80A, the self-cleavage was found to be 0.04. In the case of A68G G83A it was 1.73; in that of A66U A114U, 0.04; in that of A66G G83A, 1.56. Turning to A67G G106A, the self-cleavage is 0.02. On to A64U U87G, for which the self-cleavage worked out at 0.62. In the case of A69G A95G it was 1.8; in that of A66G U102C, 1.84. In the case of A68G U122C it was 1.18.

A64U G123A: the self-cleavage is 2.31. Turning to A69U A126U, the self-cleavage is 0.72. In the case of A67G C77A it was 0.71; in that of A68U A117G, 0.37; in that of A67G A118G, 0.95. With A67G A118U, the self-cleavage was determined as 0.81. In the case of A69G A90U it was 1.9; in that of A66G U103A, 0.32; in that of A66G U103C, 1.06.

On to A66G A118C, for which the self-cleavage was 1.11.

As for A66G A118G, the self-cleavage is 2.17. In the case of A67G U124G it was 1.24; in that of A67G U124A, 0.87; in that of A68U G137A, 1.39. As for A68G A86C, the self-cleavage came to 0.72. In the case of A67G A135G it was 2.06. For A66U A78U, the self-cleavage amounted to 0.32. In the case of A69C G84U it was 0.82. In the case of A68G G75A it was 0.1.

Regarding A66G G73U, the self-cleavage came to 0.3. A68G C88U: the self-cleavage stood at 1.57.

Regarding A68U A89G, the self-cleavage is 1.53. In the case of A67C A89U it was 2.57. In the case of A68C U130A it was 0.98; in that of G65U A111G, 0.06. Consider A67G A98G, for which the self-cleavage came to 0.36.

In the case of A68G A78G, the self-cleavage came to 0.3. A68G A78U: the self-cleavage worked out at 0.13.

With A67G C101A, the self-cleavage came out at 0.19. As for A67C, the self-cleavage is 1.83. Consider A67U, for which the self-cleavage was 1.54.

Consider A67G, for which the self-cleavage amounted to 1.1.

Regarding A69G C71A, the self-cleavage amounted to 0.43. Turning to A68G A91C, the self-cleavage amounted to 1.44.

As for A68G A91U, the self-cleavage turned out to be 1.44.

Turning to A68G U132A, the self-cleavage stood at 1.27.

A68G U132C: the self-cleavage was found to be 1.38.

Consider A66U A129U, for which the self-cleavage amounted to 0.61. In the case of A66U A129G it was 0.39; in that of A67U U87C, 1.29. In the case of G65U U87C it was 2.23; in that of A68G G84A, 2.58; in that of A69G A114G, 0.17. For A66C A67G, the self-cleavage worked out at 0.46. With A68G G106U, the self-cleavage is 0.02.

For A69C A126G, the self-cleavage was found to be 0.51. For A66G A117U, the self-cleavage turned out to be 0.6. In the case of A66G A117G it was 1.88.

As to A67U A82G, the self-cleavage stood at 0.9.

For A67G C128U, the self-cleavage stood at 0.62. As for A68G U139C, the self-cleavage was determined as 0.95.

Turning to A66U U87C, the self-cleavage came to 0.42. In the case of A68U A111G it was 0.02; in that of A66G U130C, 1.68. In the case of A66G U130G it was 0.2; in that of A66G A89G, 1.62; in that of A67G G99U, 0.62.

As to G65A A66G, the self-cleavage was determined as 1.13. Regarding A67U G75A, the self-cleavage came to 0.06. Take A67G A78G: the self-cleavage is 0.21. For A68U A125C, the self-cleavage is 1.36.

For the variant A66U G80A, the self-cleavage worked out at 0.05.

Turning to A68G C128U, the self-cleavage was 1.44. As for A68G A98G, the self-cleavage was 0.16. For the variant A68G A98U, the self-cleavage was 0.78. Take A64U A129G: the self-cleavage is 1.34. A67U U130A: the self-cleavage came to 1.56. In the case of A66U A89U it was 0.62; in that of A64U G115A, 0.02. As for A69G U108A, the self-cleavage is 0.02. Turning to A66G A90G, the self-cleavage was 1.17. In the case of A69G U122C it was 0.43. In the case of A67U A78C it was 0.23; in that of A68G U97C, 1.3. In the case of A68G A134G it was 1.5. For A68G G137A, the self-cleavage was 1.06. In the case of A68G G137C it was 1.12. In the case of A67G A89G it was 0.82. In the case of A68G G136C it was 1.93.

As for A68G G136A, the self-cleavage worked out at 1.44.

Take A66G A96G: the self-cleavage was found to be 1.87. In the case of A68U U103A it was 0.3; in that of A69G A129U, 0.33; in that of A69G C112U, 0.01. In the case of A68U A86G it was 1.44. For A66U U124C, the self-cleavage is 1.25. In the case of A69G A89U it was 1.53; in that of A66U C85U, 1.09. Turning to A67G A140U, the self-cleavage was found to be 1.93. For the variant A66G A110G, the self-cleavage worked out at 0.15. For A66G A110C, the self-cleavage was found to be 0.37.

Consider A67U A135G, for which the self-cleavage is 2.46. Regarding A66G U131C, the self-cleavage was 1.04. In the case of A68G U72A it was 0.26; in that of A68G U72C, 0.29; in that of A67C A126G, 2.11. In the case of A69U A140U it was 2.31; in that of A69U A125G, 0.75; in that of A67G A126U, 0.87.

As for A68U U127A, the self-cleavage worked out at 2.58. In the case of A68U U127C it was 0.82; in that of A64U A90G, 0.32.

Consider A66U U122C, for which the self-cleavage turned out to be 1.09.

For A68U U97G, the self-cleavage is 1.94. For the variant A69G U102A, the self-cleavage was 0.58. In the case of A69G U102C it was 2.06; in that of A68G A110G, 0.25. As for A68G A110U, the self-cleavage is 1.49.

Consider A67G U131C, for which the self-cleavage worked out at 1.2. In the case of A67G A82U it was 0.07; in that of A69G A125G, 0.39; in that of A66G A135G, 0.47. For the variant A68U U100C, the self-cleavage came out at 2.4.
